{"source": "patent US20240116985A1", "about": "(published 2024)", "note": "Starred links: 1 amine or outer side, 2 acyl side, 3 side chain; linkers in the order of their positions; H or OH if unused. Positions of bridges follow the written chain, without caps; N, C: chain ends. Non-standard residues stand in square brackets, D forms with d. Primed or numbered codes have the meaning given here. *: point of attachment. PyrS2″ = (S)-3-amino-1-((pent-4-en-1-yloxy)carbonyl)pyrrolidine-3-carboxylic acid (stapling residue), C=CCCCOC(=O)N1CC[C@@](N[*:1])(C(=O)[*:2])C1; B5(16) = 2-amino-2-(pent-4-en-1-yl)hept-6-enoic acid = 2,2-bis(4-pentenyl)glycine (stitching residue), C=CCCCC(CCCC=C)(N[*:1])C(=O)[*:2]; B5(4) = 2,2-bis(4-pentenyl)glycine = 2-amino-2-(pent-4-en-1-yl)hept-6-enoic acid (stitching residue), C=CCCCC(CCCC=C)(N[*:1])C(=O)[*:2]; TfeGA = (S)-2-amino-3-((carboxymethyl)(2,2,2-trifluoroethyl)amino)propanoic acid, O=C([C@H](CN(CC(=O)[*:3])CC(F)(F)F)N[*:1])[*:2]; PyrS2 = (S)-3-amino-1-((pent-4-en-1-yloxy)carbonyl)pyrrolidine-3-carboxylic acid, C=CCCCOC(=O)N1CC[C@@](N[*:1])(C(=O)[*:2])C1; B5(3) = 2,2-bis(4-pentenyl)glycine (stitching residue), C=CCCCC(CCCC=C)(N[*:1])C(=O)[*:2]; Phe(3-COOH) = N[C@@H](Cc1cccc(C(=O)O)c1)C(=O)O; Phe(2-CF3) = N[C@@H](Cc1ccccc1C(F)(F)F)C(=O)O; Phe(2-Cl) = N[C@@H](Cc1ccccc1Cl)C(=O)O; dαMeGly(allyl) = C=CC[C@@](C)(N)C(=O)O; Bta = N[C@@H](Cc1csc2ccccc12)C(=O)O; αAllylPro = C=CC[C@@]1(C(=O)O)CCCN1; tBuAla = CC(C)(C)C[C@H](N)C(=O)O; Cha = N[C@@H](CC1CCCCC1)C(=O)O; Thr(ol) = C[C@@H](O)[C@H](N)CO; R5 = C=CCCC[C@@](C)(N)C(=O)O; NH(CH2)6NH2 = NCCCCCCN*"}
{"target": "T1, B-cat-Halo (beta-catenin HaloTag fusion expressed in HEK293 cells) (UniProt P35222 1-781)", "T1 sequence (looked up)": "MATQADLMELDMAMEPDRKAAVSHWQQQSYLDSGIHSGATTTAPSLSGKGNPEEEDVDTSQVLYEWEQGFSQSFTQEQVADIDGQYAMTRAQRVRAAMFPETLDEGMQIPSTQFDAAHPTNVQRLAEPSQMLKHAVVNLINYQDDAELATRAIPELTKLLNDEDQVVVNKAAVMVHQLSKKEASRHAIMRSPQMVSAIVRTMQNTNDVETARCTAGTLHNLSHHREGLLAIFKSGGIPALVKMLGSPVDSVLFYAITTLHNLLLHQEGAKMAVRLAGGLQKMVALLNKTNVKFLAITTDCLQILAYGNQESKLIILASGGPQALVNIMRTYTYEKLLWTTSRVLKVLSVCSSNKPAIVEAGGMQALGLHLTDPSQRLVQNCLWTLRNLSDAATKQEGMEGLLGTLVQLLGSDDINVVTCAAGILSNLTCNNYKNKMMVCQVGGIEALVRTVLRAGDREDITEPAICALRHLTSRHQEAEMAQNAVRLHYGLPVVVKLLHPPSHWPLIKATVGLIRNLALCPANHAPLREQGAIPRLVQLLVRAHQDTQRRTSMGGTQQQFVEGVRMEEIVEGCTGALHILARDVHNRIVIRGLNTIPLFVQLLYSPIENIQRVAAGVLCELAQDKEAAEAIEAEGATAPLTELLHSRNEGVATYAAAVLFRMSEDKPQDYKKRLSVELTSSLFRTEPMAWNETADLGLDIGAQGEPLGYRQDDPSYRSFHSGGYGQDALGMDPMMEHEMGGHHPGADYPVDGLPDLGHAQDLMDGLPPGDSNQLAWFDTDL", "assay": "cell-based or functional assay", "units": {"NanoBRET Abs IC50": "µM"}}
{"binder": "Ac-[R5]D[tBuAla][B5(4)]D[Phe(3-COOH)]AAFL[PyrS2″][Phe(2-CF3)][Bta]Q-NH2 (staple 1-4, 4-11; also: -CH=CH- in each staple reduced to -CH2-CH2-)", "note": "[I-2571]", "NanoBRET Abs IC50": 24}
{"binder": "Ac-P[dαMeGly(allyl)]D[tBuAla][B5(4)]D[Phe(3-COOH)]AAFL[PyrS2″][Phe(2-CF3)][Bta]Q-NH2 (staple 5-12, 2-5; also: -CH=CH- in each staple reduced to -CH2-CH2-)", "note": "[I-2572]", "NanoBRET Abs IC50": "> 20"}
{"target": "T2, B-cat-Halo (UniProt P35222 1-781)", "T2 sequence (looked up)": "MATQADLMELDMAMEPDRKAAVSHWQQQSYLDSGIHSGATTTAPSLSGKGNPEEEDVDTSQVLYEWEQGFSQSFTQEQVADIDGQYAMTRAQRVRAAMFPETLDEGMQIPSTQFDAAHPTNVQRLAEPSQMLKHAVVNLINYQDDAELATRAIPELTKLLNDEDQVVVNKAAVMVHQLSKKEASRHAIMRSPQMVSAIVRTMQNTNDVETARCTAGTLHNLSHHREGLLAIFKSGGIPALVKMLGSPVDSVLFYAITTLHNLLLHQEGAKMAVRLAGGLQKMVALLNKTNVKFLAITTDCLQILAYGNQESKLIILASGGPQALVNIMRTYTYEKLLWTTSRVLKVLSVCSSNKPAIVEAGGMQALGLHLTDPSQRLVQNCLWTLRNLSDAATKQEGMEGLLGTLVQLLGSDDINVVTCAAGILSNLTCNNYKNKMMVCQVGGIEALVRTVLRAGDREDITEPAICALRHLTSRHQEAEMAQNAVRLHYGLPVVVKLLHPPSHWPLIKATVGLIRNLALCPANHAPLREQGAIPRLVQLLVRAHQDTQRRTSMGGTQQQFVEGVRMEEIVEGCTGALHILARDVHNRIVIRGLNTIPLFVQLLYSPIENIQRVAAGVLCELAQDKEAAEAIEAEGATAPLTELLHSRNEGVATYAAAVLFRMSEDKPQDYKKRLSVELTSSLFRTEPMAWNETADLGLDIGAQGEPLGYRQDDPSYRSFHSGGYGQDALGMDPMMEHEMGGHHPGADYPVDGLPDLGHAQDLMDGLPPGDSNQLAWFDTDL", "assay": "cell-based or functional assay", "units": {"NanoBRET Abs IC50": "µM"}}
{"binder": "Ac-[αAllylPro]D[Cha][B5(16)]DDAAFN[PyrS2″][Phe(2-Cl)][Bta]Q-NH2 (staple 1-4, 4-11)", "note": "[I-1040]", "NanoBRET Abs IC50": 9.3}
{"binder": "Ac-[αAllylPro]D[Cha][B5(16)]DDAAFT[PyrS2″][Phe(2-Cl)][Bta]Q-NH2 (staple 1-4, 4-11)", "note": "[I-1042]", "NanoBRET Abs IC50": 11.4}
{"binder": "Ac-[αAllylPro]D[Cha][B5(16)]DDAAFS[PyrS2″][Phe(2-Cl)][Bta]Q-NH2 (staple 1-4, 4-11)", "note": "[I-1044]", "NanoBRET Abs IC50": 17.6}
{"binder": "Ac-[αAllylPro]D[Cha][B5(16)]DDAAFN[PyrS2″][Phe(2-Cl)][Bta]S-NH2 (staple 1-4, 4-11)", "note": "[I-1046]", "NanoBRET Abs IC50": 20.5}
{"binder": "Ac-[αAllylPro]D[Cha][B5(4)]DDAAFT[PyrS2″][Phe(2-Cl)][Bta]S-NH2 (staple 1-4, 4-11)", "note": "[I-1048]", "NanoBRET Abs IC50": 8.8}
{"binder": "Ac-[αAllylPro]D[Cha][B5(4)]DDAAFS[PyrS2][Phe(2-Cl)][Bta]S-NH2 (staple 1-4, 4-11)", "note": "[I-1050]", "NanoBRET Abs IC50": 24.8}
{"binder": "Ac-[αAllylPro]D[tBuAla][B5(4)]D[TfeGA]AAFT[PyrS2][Phe(2-Cl)][Bta]Q-{NH(CH2)6NH2} (staple 1-4, 4-11)", "note": "[I-1061]", "NanoBRET Abs IC50": 10.3}
{"binder": "Ac-[αAllylPro]D[tBuAla][B5(4)]DDAAFL[PyrS2″][Phe(2-Cl)][Bta]Q-NH2 (staple 1-4, 4-11)", "note": "[I-1062]", "NanoBRET Abs IC50": 4.7}
{"target": "T3, B-cat-Halo (beta-catenin HaloTag NanoBRET construct expressed in HEK293 cells) (UniProt P35222 2-781)", "T3 sequence (looked up)": "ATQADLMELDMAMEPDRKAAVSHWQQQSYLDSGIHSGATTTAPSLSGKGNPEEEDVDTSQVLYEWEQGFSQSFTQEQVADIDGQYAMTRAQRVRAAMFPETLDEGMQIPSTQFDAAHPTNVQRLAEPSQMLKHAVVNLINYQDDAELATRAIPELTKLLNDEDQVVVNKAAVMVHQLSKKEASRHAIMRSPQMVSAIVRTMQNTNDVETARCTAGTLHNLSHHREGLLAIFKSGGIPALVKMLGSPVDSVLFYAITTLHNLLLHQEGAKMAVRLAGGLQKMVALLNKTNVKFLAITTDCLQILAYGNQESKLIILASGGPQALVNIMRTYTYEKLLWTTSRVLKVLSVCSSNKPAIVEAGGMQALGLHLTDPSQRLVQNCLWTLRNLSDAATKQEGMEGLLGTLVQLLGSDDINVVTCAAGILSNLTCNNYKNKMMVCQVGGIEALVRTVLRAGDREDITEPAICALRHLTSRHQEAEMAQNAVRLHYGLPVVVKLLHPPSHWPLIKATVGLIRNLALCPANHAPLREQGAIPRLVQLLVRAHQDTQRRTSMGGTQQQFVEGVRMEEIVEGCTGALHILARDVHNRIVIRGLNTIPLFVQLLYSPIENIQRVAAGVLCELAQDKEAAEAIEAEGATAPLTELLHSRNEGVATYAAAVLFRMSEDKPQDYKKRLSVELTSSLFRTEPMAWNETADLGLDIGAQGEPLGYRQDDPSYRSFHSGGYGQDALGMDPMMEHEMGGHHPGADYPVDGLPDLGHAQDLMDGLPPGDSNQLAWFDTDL", "assay": "cell-based or functional assay", "units": {"NanoBRET Abs IC50": "µM"}}
{"binder": "Ac-[αAllylPro]D[tBuAla][B5(4)]DDAAFL[PyrS2″]F[Bta]Q-NH2 (staple 1-4, 4-11)", "note": "[I-1072]", "NanoBRET Abs IC50": 10.5}
{"binder": "Ac-[αAllylPro]D[tBuAla][B5(4)]DDAAFN[PyrS2″][Phe(2-Cl)][Bta]Q-NHEt (staple 1-4, 4-11)", "note": "[I-1079]", "NanoBRET Abs IC50": 19.7}
{"binder": "Ac-[αAllylPro]D[tBuAla][B5(3)]DDAAFN[PyrS2″][Phe(2-Cl)][Bta][Thr(ol)] (staple 1-4, 4-11)", "note": "[I-1082]", "NanoBRET Abs IC50": 14.1}
